Experimental findings from patent US20240343810A1 (published 2024) are described below.

In assay [1] the target is T1, mouse ICOS-mFc (Chimerigen) (mouse, UniProt Q9WVS0 21-141, limits assumed).
T1 construct: Bought; also called recombinant mouse ICOS protein; mICOS; not shown: mouse Fc of the bought fusion
T1 sequence: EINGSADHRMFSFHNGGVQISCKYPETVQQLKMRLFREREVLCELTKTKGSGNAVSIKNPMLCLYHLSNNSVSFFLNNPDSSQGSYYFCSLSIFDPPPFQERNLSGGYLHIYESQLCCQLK
Briefly: DELFIA ELISA on coated mouse ICOS-mFc, N=2. Here is the method:
(§1) Recombinant ICOS proteins, human ICOS-mFc or mouse ICOS-mFc (Chimerigen) were diluted in 1×PBS and added to Black Hi-bind plates (Griener) at 1 μg/ml, 50 μl/well. Recombinant PD-L1 proteins, human PD-L1-Flag-His or mouse-His were diluted in 1×PBS and added to Black Hi-bind plates (Griener) at 4 μg/ml, 50 μl/well. The plates were left overnight at 4° C. The next day plates were washed 3× with 300 μl/well of 1×PBS+0.1% Tween and blocked with 200 ul/well of 1×PBS+1% BSA blocking buffer for 1 hr at RT on a plate shaker. Plates were washed 3× with 300 μl/well of 1×PBS+0.1% Tween.
(§2) However, human-PD-L1 mAb² antibodies were diluted in 1×PBS+0.1% BSA buffer and diluted 1 in 2 from a starting working concentration of 0.066 μM over an 11 point titration. Titrated antibodies were added to the plates, 50 μl/well and left to incubate for 1 hr at R.T on a plate shaker. Plates were washed 3× with 300 μl/well of 1×PBS+0.1% Tween.
(§3) DELFIA® Eu-labelled Anti-human IgG (Perkin-Elmer) was diluted 1:500 in DELFIA Assay buffer (Perkin-Elmer) and added to the assay plate (50 μl/well), left to incubate for 1 hr at RT on a plate shaker. […] After incubation, assay was read on Envision plate reader (Perkin Elmer), Time-resolved fluorescence (TRF) was measured at 615 nm.
A general note: In an ELISA, binding on a coated surface is turned into a signal by an enzyme label.

In assay [2] the target is T2, human PD-L1 expressed on cells (human, UniProt Q9NZQ7 19-290).
T2 construct: also called CHO-S cells transfected with the cDNA coding for human PD-L1; CHO human PD-L1
T2 sequence (Q9NZQ7 19-290 limits assumed): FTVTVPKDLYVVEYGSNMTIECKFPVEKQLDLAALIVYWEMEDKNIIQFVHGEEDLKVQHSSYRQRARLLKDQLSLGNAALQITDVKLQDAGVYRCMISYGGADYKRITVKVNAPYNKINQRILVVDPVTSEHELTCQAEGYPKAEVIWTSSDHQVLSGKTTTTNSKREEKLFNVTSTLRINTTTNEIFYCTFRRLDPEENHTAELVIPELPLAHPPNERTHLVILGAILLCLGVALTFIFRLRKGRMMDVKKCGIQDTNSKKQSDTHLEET
Briefly: Flow cytometry on CHO human PD-L1 cells. A general note: In flow cytometry, cells or beads pass a laser one at a time.

Assay [3] addresses T3, human ICOS-mFc (Chimerigen) (human, UniProt Q9Y6W8 21-140).
T3 construct: Bought; also called recombinant human ICOS protein; hICOS; not shown: mouse Fc of the bought fusion
T3 sequence: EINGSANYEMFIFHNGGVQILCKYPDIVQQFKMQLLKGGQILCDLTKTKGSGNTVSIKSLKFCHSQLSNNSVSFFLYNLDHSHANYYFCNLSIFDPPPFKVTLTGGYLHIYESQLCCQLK
Description: DELFIA ELISA on coated human ICOS-mFc, N=1. As to the method:
as §1, §2, §3

Assay [4] has as its target T4, Biotinylated human ICOS protein (human, UniProt Q9Y6W8 21-140, limits assumed, biotinylated (sites not given)).
T4 construct: Captured on the NLC chip in the avidity SPR
T4 sequence: T3 sequence
Description: SPR ProteOn avidity format, biotinylated human ICOS on NLC chip, antibody analyte, 25 C. Here is the method:
Biotinylated human ICOS protein diluted at 7.5 μg/mL in running buffer (1× HBS-EP+ Buffer Technova, cat. No. H8022) was captured on a NLC sensor chip (Bio-Rad, cat No 1765021). The surface was then blocked using biocytin (Sigma Aldrich, cat No B1758) at 1 mg/mL.
The assay was carried out at 25° C.
The buffer injection (i.e. 0 nM) was used to double reference the sensorgrams. The analysis was carried out using the equilibrium model inherent to the ProteOn's analysis software for each mAb² construct.

Assay [5] deals with T5, human ICOS expressed on cells (human, UniProt Q9Y6W8 21-199).
T5 sequence: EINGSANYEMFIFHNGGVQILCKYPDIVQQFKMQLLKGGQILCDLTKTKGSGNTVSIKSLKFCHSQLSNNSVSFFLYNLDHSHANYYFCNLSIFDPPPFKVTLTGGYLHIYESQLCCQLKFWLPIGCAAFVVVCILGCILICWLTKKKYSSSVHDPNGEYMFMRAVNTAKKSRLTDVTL
Description: cell-based or functional assay.

The target in assay [6] is T1, mouse ICOS-mFc (Chimerigen). Briefly: DELFIA ELISA on coated mouse ICOS-mFc, mean. As to the method: as §1, §2, §3
The target in assay [7] is T5, human ICOS expressed on cells. Description: Flow cytometry on CHO-S human ICOS cells, anti-human IgG AF647, N=2. As to the method: CHO—S cells transfected with either human ICOS or mouse ICOS were resuspended in FACS buffer (PBS+1% w/v BSA+0.1% w/v sodium azide) and transferred to a 96-well V-bottom plate (Greiner) at a density of 1×10⁵ cells per well. mAb and mAb² were titrated in FACS buffer, 1 in 3 dilution across 11 points from a starting working concentration of 400 nM. Plates were centrifuged at 300×g for 3 minutes, supernatant discarded and 50 μL mAb or mAb² solution were added to cells and incubated at 4° C. for 1 hour. Cells were washed with 150 μL of PBS and centrifuged at 300×g for 3 minutes, supernatant was discarded and cell pellet resuspended in 150 μL PBS added. This wash step was repeated twice. Bound mAb or mAb² was detected by addition of 50 μL of anti-human 647 (Jackson ImmunoResearch) diluted to 3 ug/ml in FACS buffer. Cells were incubated for 1 hour at 4° C. in the dark. Cells were washed with 150 μL of PBS and centrifuged at 300 g for 3 minutes, supernatant was discarded and cell pellet resuspended in 150 μL PBS added. This wash step was repeated twice. Cells were fixed with 25 μL 4% v/v paraformaldehyde, incubated for 20 minutes at 4° C., cells were pelleted by centrifugation at 300×g and the supernatant discarded. […] AlexaFluor 647 signal intensity (geometric mean) was measured by flow cytometry using a Beckman Coulter CytoFLEX instrument.

B1: STIM001 (antibody, human IgG1, kappa)
heavy: not shown
light: DIVMTQSPLSLPVTPGEPASISCRSSQSLLHSNEYNYLDWYLQKPGQSPQLLIFLGSNRASGVPDRFSGSGSGTDFTLKITRVEAEDVGIYYCMQSLQTPLTFGGGTKVEIKRTVAAPSVFIFPPSDEQLKSGTASVVCLLNNFYPREAKVQWKVDNALQSGNSQESVTEQDSKDSTYSLSSTLTLSKADYEKHKVYACEVTHQGLSSPVTKSFNRGEC
notes: Anti-ICOS monospecific antibody, tested as human IgG1; also called STIM001 monoclonal IgG1 antibody
As to B1, the response in assay [1] was half-maximal at 18.7 nM (EC50). Further, the binding result in assay [2] is “no binding (tested: 198 nM)”. In assay [3], the EC50 – broadly, the concentration needed to bring the measured effect to its halfway point – is 20 nM. Moreover, the koff (in general, the rate constant with which the complex falls apart) in assay [4] was 0.000456 s⁻¹. In assay [5], the “EC50 of IFN-γ production, plate-bound antibody, human T-cells + CD3/CD28 beads, donor 276” value was approximately 9.9 nM; the “EC50 of IFN-γ production, plate-bound antibody, human T-cells + CD3/CD28 beads, donor 278” value was approximately 10.2 nM; the “EC50 of IFN-γ production, plate-bound antibody, human T-cells + CD3/CD28 beads, donor 289” value was approximately 11.2 nM; the “EC50 of IFN-γ production, plate-bound antibody, human T-cells + CD3/CD28 beads, donor 295” value was determined as 14.5 nM. In assay [5], the “EC50 of IFN-γ production, plate-bound antibody, human T-cells + CD3/CD28 beads, median” value came out at 10.7 nM. Further, a half-maximal response in assay [6] (EC50) required 11.4 nM. In addition, the response in assay [7] was half-maximal at 13.8 nM (EC50).

B2: STIM003 (antibody, human IgG1, kappa)
heavy: not shown
light: EIVLTQSPGTLSLSPGERATLSCRASQSVSRSYLAWYQQKRGQAPRLLIYGASSRATGIPDRFSGDGSGTDFTLSISRLEPEDFAVYYCHQYDMSPFTFGPGTKVDIKRTVAAPSVFIFPPSDEQLKSGTASVVCLLNNFYPREAKVQWKVDNALQSGNSQESVTEQDSKDSTYSLSSTLTLSKADYEKHKVYACEVTHQGLSSPVTKSFNRGEC
notes: Anti-ICOS monospecific antibody, tested as human IgG1; also called STIM003 monoclonal IgG1 antibody
As for B2, in assay [1], the EC50 came out at 0.386 nM. In addition, the binding result in assay [2] is “no binding (tested: 198 nM)”. Further, it took 0.488 nM to reach a half-maximal effect in assay [3] (EC50). Also, the koff in assay [4] was 0.000449 s⁻¹. Further, in assay [5], the “EC50 of IFN-γ production, plate-bound antibody, human T-cells + CD3/CD28 beads, donor 276” value was determined as 7.1 nM; the “EC50 of IFN-γ production, plate-bound antibody, human T-cells + CD3/CD28 beads, donor 278” value stood at 3.8 nM; the “EC50 of IFN-γ production, plate-bound antibody, human T-cells + CD3/CD28 beads, donor 289” value is approximately 4 nM; the “EC50 of IFN-γ production, plate-bound antibody, human T-cells + CD3/CD28 beads, donor 295” value is approximately 11.6 nM. Moreover, the “EC50 of IFN-γ production, plate-bound antibody, human T-cells + CD3/CD28 beads, median” value in assay [5] was determined as 5.55 nM. The molecule also came in with an EC50 in assay [6] of 0.38 nM. Moreover, it took 4.89 nM to reach a half-maximal effect in assay [7] (EC50).
